# Reference: paper PMC2659011
# Tests used:
# [1] = substrate: O=C(O)/C=C/Cl; experiment: purified protein; settings: 20 mM Na2HPO4 pH 9.0, 22 °C
# [2] = substrate: CC#CC(=O)C(=O)O; experiment: spectrophotometric hydration assay; format: biochemical, Corynebacterium glutamicum; settings: 20 mM Na2HPO4 pH 9.0, 23 °C
# [3] = substrate: O=C(O)/C=C\Cl; experiment: purified protein; settings: 20 mM Na2HPO4 pH 9.0, 22 °C
Protein,Km [1] [mM],kcat [1] [s⁻¹],kcat/Km [1] [M⁻¹ s⁻¹],Km [2] [mM],kcat [2] [s⁻¹],kcat/Km [2] [M⁻¹ s⁻¹],Km [3] [mM],kcat [3] [s⁻¹],kcat/Km [3] [M⁻¹ s⁻¹]
CaaD (trans-3-chloroacrylic acid dehalogenase) (Pseudomonas pavonaceae) (protein) chain 1: PMISCDMRYGRTDEQKRALSAGLLRVISEATGEPRENIFFVIREGSGINFVEHGEHLPDYVPGNANDKALIAKLK chain 2: PFIECHIATGLSVARKQQLIRDVIDVTNKSIGSDPKIINVLLVEHAEANMSISGRIHGEAASTERTPAVS,0.028 ± 0.003,1.9 ± 0.6,68000,–,–,–,–,–,–
Cg10062 (Corynebacterium glutamicum ATCC 13032) (protein) PTYTCWSQRIRISREAKQRIAEAITDAHHELAHAPKYLVQVIFNEVEPDSYFIAAQSASENHIWVQATIRSGRTEKQKEELLLRLTQEIALILGIPNEEVWVYITEIPGSNMTEYGRLLMEPGEEEKWFNSLPEGLRERLTELEGSSE,78 ± 36,0.06 ± 0.01,0.8,6.2 ± 0.75,0.33 ± 0.03,50,19 ± 1,3.5 ± 1.1,184
